Source: publication PMC4102529, “FRET Based Quantification and Screening Technology Platform for the Interactions of Leukocyte Function-Associated Antigen-1 (LFA-1) with InterCellular Adhesion Molecule-1 (ICAM-1)” (PLoS ONE, 2014)

Molecular target: human recombinant ICAM-1 (D1-D2-Fc), Alexa Fluor 555 conjugate (human) (UniProt P05362)
Experiment: FRET or BRET; steady-state, in solution competition screening, 96-well plate; Alexa Fluor 488-LFA-1 (100 nM) mixed with peptide (0.02, 0.2, 2, 20 µM), then incubated with Alexa Fluor 555-D1-D2-Fc (100 nM) for 30 min in the dark; PBS pH 7.4, 1 mM EGTA, 2 mM Mg2+; inhibition efficiency from the FRET efficiency

human recombinant ICAM-1 (D1-D2-Fc), Alexa Fluor 555 conjugate (human), sequence (P05362 28-532): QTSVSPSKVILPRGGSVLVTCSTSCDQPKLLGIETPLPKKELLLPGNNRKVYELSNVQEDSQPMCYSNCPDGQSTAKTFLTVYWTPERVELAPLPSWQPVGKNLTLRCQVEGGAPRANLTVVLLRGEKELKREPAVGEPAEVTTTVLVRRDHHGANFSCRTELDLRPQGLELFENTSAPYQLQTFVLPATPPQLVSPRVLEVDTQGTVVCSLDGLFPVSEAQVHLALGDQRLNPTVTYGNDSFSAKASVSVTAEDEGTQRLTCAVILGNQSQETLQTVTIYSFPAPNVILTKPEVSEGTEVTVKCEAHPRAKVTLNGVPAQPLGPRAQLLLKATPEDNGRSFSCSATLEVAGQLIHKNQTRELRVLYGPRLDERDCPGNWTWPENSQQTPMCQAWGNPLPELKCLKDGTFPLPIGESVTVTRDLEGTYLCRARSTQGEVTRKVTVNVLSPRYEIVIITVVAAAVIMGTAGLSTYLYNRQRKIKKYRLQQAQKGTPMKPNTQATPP

Binder	inhibition efficiency of the LFA-1/D1-D2-Fc interaction at 0.02 µM peptide [%]	inhibition efficiency of the LFA-1/D1-D2-Fc interaction at 0.2 µM peptide [%]	inhibition efficiency of the LFA-1/D1-D2-Fc interaction at 2 µM peptide [%]	inhibition efficiency of the LFA-1/D1-D2-Fc interaction at 20 µM peptide [%]
ITDGEATDSGNIDAAKDIIRYIIGI [CD11a(237–261) peptide]	40.8	47	53.2	65.1
APLFYGEQRG [CD11a(456–465) peptide]	12.2	20.3	36.5	51.4
